According to patent US20260055141A1, “COMPOSITIONS AND METHODS FOR CONTROLLING FOOD INTAKE, ENERGY EXPENDITURE, AND BODY WEIGHT FOR THE TREATMENT OF OBESITY AND METABOLIC DISEASES” (The Trustees of the University of Pennsylvania, priority 2022, published 2026):
No end group written: not given here.

Assays:
[1] = biological target: T1, human GPR75 (372-540 aa region), His-tagged (human, UniProt O95800 372-540); assay: SPR (Nicoya OpenSPR), His-tagged GPR75 on NTA sensor, one-to-one fit; curve at 4.9 µM
T1 construct: range 372-540; also called G-Protein Receptor 75; not shown: His tag

[2] = biological target: T1, human GPR75 (372-540 aa region), …; assay: SPR (Nicoya OpenSPR), His-tagged GPR75 on NTA sensor, one-to-one fit; curve at 12.3 µM
[3] = biological target: T1, human GPR75 (372-540 aa region), …; assay: SPR (Nicoya OpenSPR), His-tagged GPR75 on NTA sensor, one-to-one fit; curve at 4.93 µM
[4] = biological target: T1, human GPR75 (372-540 aa region), …; assay: SPR (Nicoya OpenSPR), His-tagged GPR75 on NTA sensor, one-to-one fit; curve at 49.3 µM
[5] = biological target: T1, human GPR75 (372-540 aa region), …; assay: SPR (Nicoya OpenSPR), His-tagged GPR75 on NTA sensor, one-to-one fit; curve at 92.4 µM
[6] = biological target: T1, human GPR75 (372-540 aa region), …; assay: SPR (Nicoya OpenSPR), His-tagged GPR75 on NTA sensor, one-to-one fit; curve at 24.65 µM
[7] = biological target: T1, human GPR75 (372-540 aa region), …; assay: SPR (Nicoya OpenSPR), His-tagged GPR75 on NTA sensor, one-to-one fit; curve at 123.23 µM
[8] = biological target: T1, human GPR75 (372-540 aa region), …; assay: SPR (Nicoya OpenSPR), His-tagged GPR75 on NTA sensor, one-to-one fit; second curve at 12.3 µM
[9] = biological target: T1, human GPR75 (372-540 aa region), …; assay: SPR (Nicoya OpenSPR), His-tagged GPR75 on NTA sensor, one-to-one fit; second curve at 49.3 µM

T1 sequence (O95800 372-540 limits assumed): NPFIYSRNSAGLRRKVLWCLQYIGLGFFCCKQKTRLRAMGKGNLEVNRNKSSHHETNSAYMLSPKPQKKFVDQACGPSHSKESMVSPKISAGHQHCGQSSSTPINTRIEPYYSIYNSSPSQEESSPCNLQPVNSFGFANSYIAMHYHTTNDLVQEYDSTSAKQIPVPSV

koff [1]: 0.0141 s⁻¹ | koff [2]: 0.0141 s⁻¹ | koff [3]: 0.0141 s⁻¹ | koff [4]: 0.0141 s⁻¹ | koff [5]: 0.0141 s⁻¹ | koff [6]: 0.0141 s⁻¹ | koff [7]: 0.0141 s⁻¹ | koff [8]: 0.0141 s⁻¹ | koff [9]: 0.0141 s⁻¹
B1: SU75-37 (peptide)
peptide: TFTSDLSKYLEEEVREFIWLKNGGPSDVNTDRPGLLDLK-NH2
notes: Synthetic, non-naturally occurring peptide; also called Drug37; SUODN37
